No end group written: not given here.
Molecular target: T1, recombinant, frog ferritin H protein nanocages (wild type) (Aquarana catesbeiana, UniProt P07229)
T1 construct: made in house
T1 sequence (P07229 1-176): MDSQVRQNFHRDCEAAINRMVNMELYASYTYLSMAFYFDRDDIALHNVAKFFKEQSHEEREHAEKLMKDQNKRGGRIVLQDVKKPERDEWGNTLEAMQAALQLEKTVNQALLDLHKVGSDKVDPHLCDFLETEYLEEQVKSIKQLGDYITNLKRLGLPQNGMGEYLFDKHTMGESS
Assay: Ferritin demineralization: formation of Fe2+-bipyridyl after adding NADH/FMN
Assay type: biochemical
Conditions: for Initial rate of Fe^2+ bipyridyl formation, pH = 7.0: 2.5 mM FMN, 2.5 mM NADH, 2.5 mM bipyridyl, absorbance 522 nm
Text: The effect of the test agent on demineralization (e.g., on release of iron from ferritin) is generally carried out by contacting the test agent with ferritin in the presence of a reductant and an iron chelating agent such as bipyridyl or desferrioxamine. A suitable reductant comprises nicotinamide adenine dinucleotide reduced form (NADH) and flavin mononucleotide (FMN). The reductant reduces Fe(III) to Fe(II); and the iron chelating agent forms a complex with the Fe(II). Iron release from ferritin can be measured using any convenient method, including methods known in the art. The following is a non-limiting example of a suitable method. In this example, iron release from ferritin is measured by the formation of Fe(II)-bipyridyl. Iron release can be initiated by the addition of 2.5 mM bipyridyl, 2.5 mM FMN, and 2.5 mM NADH to ferritin in 0.1 M MOPS (pH 7.0) and 0.2 M NaCl. Formation of Fe(II)-bipyridyl is detected by measuring absorbance at 522 nm. See, e.g. Liu et al. (2003) Proc. Natl. Acad. Sci. USA 100:3653; and Takagi et al. (1998) J. Biol. Chem. 273:18685. Desferrioxamine can also be used as an iron chelator. See, e.g., Breuer et al. (2001) Blood 97:792.
The strategy used to identify molecules that would modulate ferritin protein nanocage pore function had two components: (i) searching a combinatorial peptide library for ferritin binding peptides, and (ii) analyzing the effect of reductants on the ferritin mineral inside the protein nanocages. Peptides were selected as the molecules of choice for pore alterations because of the selectivity of urea (1 mM) and guanidine (0.1 mM) in pore unfolding, observed previously. Liu and Theil (2003) Proc. Natl. Acad. Sci. U.S.A. 100:3653. Changes in ferritin protein nanocage pore gating can be analyzed as changes in the rate of ferritin iron demineralization, measured as formation of colored Fe chelates, when reductant (NADH/FMN) is added. Jones et al. (1978) Biochemistry 17:4011.
The peptides were mixed with wild type ferritin; demineralization was initiated by addition of NADH/FMN, and the appearance of Fe^2+-bipyridyl measured (FIG. 2). Three of the peptides (2, 3, and 5) had no effect on rates of formation of Fe^2+-bipyridyl, compared to wild type ferritin H protein nanocages, while Peptide 4 (Group B, eluted with ferritin H protein nanocages, after elution with ferritin H-L134P protein nanocages) decreased the rate 63%. Peptide 4 has 3 His and 1 Asp and could bind to charged residues around the pore. The peptide interaction with ferritin protein nanocage could interfere with unfolding and/or reductant access to the ferric mineral, or might induce conformational changes at the pore or elsewhere.
FIG. 2. Effect of binding peptides on removal of iron from the ferritin mineral. Demineralization of ferritin (recombinant, frog ferritin H protein nanocages; protein: 2.06 μM; Fe: 0.99 mM, MOPS: 100 mM, NaCl: 100 mM, pH 7.0) was initiated with reductant (final concentration: 2.5 mM FMN, 2.5 mM NADH), with bipyridyl (2.5 mM); formation of Fe^2+-bipyridyl was monitored at 522 nm. Initial reaction rates were calculated as described previously (Liu et al. (2003) Proc. Natl. Acad. Sci. USA 100:3653). Ferritin binding peptides, identified in a combinatorial, heptapeptide, phage-display library (1.3×10^9 members, New England Biolabs), were mixed with mineralized ferritin protein nanocages for one hour before initiating demineralization. Peptide 2 (Group A, eluted with H-L134P ferritin protein nanocage) and Peptides 3 and 5 (Group B, eluted with wild type ferritin protein nanocage), had no effect. The data are averages from triplicates in 2-5 independent experiments with two different protein preparations; the error is the standard deviation. […]

[1] = compared to wild type ferritin H protein nanocages without peptide

Substance | Effect on rates of formation of Fe^2+-bipyridyl [1] | Initial rate of Fe^2+ bipyridyl formation, pH = 7.0 (H-wt ferritin + peptide) | further results
HHALGGS (SEQ ID NO:6) (HHALGGSGG; not fully specified (N-terminus)) [Peptide 5, heptapeptide from the phage display library, synthesized as an undecapeptide with HS at the N-terminus and GG at the C-terminus] | no effect | – | –
GDWYLGD (SEQ ID NO:5) (GDWYLGDGG; not fully specified (N-terminus)) [Peptide 3, heptapeptide from the phage display library, synthesized as an undecapeptide with HS at the N-terminus and GG at the C-terminus] | no effect | – | –
SHTSPSI (SEQ ID NO:4) (SHTSPSIGG; not fully specified (N-terminus)) [Peptide 2, heptapeptide from the phage display library, synthesized as an undecapeptide with HS at the N-terminus and GG at the C-terminus] | no effect | – | –
HSHHALDGSGG (SEQ ID NO:2) [Peptide 4] | – | 0.41 ± 0.05 (mMol) × 10^3S^−1 | Decrease of the rate of formation of Fe^2+-bipyridyl [1]: 63%
HSNTYYFPKGG (SEQ ID NO:7) [Peptide 1] | – | 6.80 ± 0.37 (mMol) × 10^3S^−1 | Rate Change with Temperature (Arrhenius equation) E‡ (Table 1, H-wt ferritin + peptide): 19.1 ± 0.621 kcal/mol; E‡ in the Arrhenius plot (wild type ferritin complexed with peptide, FIG. 2B): 20.8 kcal/mol
